No end group written: not given here.
Columns and labels:
Assay in all cases: Kinase Profiling Assay
Assay type in all cases: biochemical
Details in all cases: peptide 100 μM
EGFR(h) = EGFR(h) (Homo sapiens, UniProt P00533)
Outline: (§1)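 Radiometric filter-binding format: cationic substrate takes up labeled phosphate from ATP unless the inhibitor peptide blocks the kinase. Substrate bound to an anionic filter, scintillation-counted, normalized to 100% activity control. Duplicates; part of a 266-kinase selectivity panel for MK2 peptides.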

CDK9/cyclin T1(h) = CDK9/cyclin T1(h) (Homo sapiens, UniProt P50750)
Sequence of CDK9/cyclin T1(h) (P50750 whole entry): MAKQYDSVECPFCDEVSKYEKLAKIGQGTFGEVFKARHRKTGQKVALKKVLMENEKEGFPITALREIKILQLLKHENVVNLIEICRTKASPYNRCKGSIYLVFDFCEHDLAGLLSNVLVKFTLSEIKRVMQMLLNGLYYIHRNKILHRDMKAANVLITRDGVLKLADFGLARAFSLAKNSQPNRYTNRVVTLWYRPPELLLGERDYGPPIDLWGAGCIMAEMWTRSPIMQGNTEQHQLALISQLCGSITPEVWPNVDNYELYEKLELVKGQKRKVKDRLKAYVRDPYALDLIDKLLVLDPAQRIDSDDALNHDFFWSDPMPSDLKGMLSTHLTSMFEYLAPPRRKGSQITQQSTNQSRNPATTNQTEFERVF
Sequence of CDK9/cyclin T1(h) (O60563 whole entry partner): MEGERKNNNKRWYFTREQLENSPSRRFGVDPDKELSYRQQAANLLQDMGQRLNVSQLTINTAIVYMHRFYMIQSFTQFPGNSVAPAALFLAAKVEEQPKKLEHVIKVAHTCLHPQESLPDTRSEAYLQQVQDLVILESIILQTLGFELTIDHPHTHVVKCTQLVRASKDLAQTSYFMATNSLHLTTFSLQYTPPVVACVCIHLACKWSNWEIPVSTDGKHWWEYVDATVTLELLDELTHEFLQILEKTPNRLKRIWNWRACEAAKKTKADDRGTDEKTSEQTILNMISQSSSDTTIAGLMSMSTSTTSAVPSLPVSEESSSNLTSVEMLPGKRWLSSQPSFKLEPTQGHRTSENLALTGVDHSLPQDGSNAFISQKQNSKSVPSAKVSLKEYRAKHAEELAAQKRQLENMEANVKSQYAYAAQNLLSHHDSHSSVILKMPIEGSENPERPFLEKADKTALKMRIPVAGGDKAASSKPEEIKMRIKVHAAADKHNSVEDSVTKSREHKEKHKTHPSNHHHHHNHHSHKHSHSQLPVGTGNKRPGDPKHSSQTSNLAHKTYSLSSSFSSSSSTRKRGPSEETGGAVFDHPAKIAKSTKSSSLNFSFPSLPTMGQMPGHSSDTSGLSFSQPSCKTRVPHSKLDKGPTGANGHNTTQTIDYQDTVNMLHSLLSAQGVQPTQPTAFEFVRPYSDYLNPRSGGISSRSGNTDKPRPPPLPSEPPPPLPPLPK
Outline: as §1

Src(1-530)(h) = target: T1, Src(1-530)(h) (Homo sapiens, UniProt P12931)
T1 construct: Src(1-530)(h); purchased Millipore
Outline: as §1

MLK1(h) = target: T2, MLK1(h) (Homo sapiens, UniProt P80192)
T2 construct: purchased Millipore
T2 sequence (P80192 whole entry): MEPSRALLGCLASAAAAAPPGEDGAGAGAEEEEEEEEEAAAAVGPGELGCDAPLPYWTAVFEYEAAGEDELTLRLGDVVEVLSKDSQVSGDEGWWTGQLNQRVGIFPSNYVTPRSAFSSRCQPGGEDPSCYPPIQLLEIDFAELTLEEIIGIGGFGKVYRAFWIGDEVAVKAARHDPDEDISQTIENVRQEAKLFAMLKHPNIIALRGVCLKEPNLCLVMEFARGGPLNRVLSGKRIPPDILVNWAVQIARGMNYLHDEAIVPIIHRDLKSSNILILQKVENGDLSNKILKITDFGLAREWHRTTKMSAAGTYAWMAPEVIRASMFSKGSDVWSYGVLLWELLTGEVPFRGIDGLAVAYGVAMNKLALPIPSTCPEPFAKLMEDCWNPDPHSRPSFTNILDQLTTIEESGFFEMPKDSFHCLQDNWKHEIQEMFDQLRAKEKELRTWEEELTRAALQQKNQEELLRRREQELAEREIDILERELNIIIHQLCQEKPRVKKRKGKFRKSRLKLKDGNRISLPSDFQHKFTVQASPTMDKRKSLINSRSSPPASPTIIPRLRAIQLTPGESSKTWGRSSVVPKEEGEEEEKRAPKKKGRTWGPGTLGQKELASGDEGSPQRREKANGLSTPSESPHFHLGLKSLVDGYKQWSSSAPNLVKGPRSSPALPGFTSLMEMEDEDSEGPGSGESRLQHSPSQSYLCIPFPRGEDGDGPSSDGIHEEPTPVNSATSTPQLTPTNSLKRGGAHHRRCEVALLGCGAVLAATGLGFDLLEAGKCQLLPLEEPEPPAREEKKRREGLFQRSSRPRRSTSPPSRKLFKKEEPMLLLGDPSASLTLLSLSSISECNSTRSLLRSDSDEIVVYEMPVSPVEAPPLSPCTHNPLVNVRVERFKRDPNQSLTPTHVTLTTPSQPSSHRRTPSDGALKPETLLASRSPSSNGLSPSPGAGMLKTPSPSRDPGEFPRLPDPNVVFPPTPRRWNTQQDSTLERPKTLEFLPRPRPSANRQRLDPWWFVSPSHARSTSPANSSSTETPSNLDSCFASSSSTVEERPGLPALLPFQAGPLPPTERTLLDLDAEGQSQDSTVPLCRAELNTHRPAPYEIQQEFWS
Outline: as §1

TAO3(h) = target: T3, TAO3(h) (Homo sapiens, UniProt Q9H2K8)
T3 construct: purchased Millipore
T3 sequence (Q9H2K8 1-898): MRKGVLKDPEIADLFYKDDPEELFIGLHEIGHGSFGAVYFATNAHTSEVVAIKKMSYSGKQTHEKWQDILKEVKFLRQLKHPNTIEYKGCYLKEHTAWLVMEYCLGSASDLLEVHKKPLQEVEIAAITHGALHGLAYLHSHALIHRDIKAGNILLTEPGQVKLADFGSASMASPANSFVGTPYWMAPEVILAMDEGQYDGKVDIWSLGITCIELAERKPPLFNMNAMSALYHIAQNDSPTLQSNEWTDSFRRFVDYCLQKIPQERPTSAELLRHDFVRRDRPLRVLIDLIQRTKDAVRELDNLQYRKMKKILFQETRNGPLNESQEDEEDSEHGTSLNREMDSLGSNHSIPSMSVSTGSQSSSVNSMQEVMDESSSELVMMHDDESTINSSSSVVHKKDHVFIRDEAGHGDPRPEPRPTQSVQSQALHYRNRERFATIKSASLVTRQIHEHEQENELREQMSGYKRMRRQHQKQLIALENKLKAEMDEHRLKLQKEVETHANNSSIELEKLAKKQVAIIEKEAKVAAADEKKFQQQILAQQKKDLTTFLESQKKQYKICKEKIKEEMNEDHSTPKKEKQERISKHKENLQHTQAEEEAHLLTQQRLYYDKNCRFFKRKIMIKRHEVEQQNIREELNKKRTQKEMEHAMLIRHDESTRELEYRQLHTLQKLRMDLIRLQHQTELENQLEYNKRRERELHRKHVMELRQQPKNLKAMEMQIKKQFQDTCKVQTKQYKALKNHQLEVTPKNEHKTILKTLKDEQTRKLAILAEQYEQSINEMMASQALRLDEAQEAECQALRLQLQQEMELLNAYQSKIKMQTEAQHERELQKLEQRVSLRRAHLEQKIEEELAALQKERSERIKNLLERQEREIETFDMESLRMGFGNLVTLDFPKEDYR
Outline: as §1

CHK2(I157T)(h) = CHK2(I157T)(h) (Homo sapiens, UniProt O96017, I157T)
Sequence of CHK2(I157T)(h) (O96017 whole entry I157T): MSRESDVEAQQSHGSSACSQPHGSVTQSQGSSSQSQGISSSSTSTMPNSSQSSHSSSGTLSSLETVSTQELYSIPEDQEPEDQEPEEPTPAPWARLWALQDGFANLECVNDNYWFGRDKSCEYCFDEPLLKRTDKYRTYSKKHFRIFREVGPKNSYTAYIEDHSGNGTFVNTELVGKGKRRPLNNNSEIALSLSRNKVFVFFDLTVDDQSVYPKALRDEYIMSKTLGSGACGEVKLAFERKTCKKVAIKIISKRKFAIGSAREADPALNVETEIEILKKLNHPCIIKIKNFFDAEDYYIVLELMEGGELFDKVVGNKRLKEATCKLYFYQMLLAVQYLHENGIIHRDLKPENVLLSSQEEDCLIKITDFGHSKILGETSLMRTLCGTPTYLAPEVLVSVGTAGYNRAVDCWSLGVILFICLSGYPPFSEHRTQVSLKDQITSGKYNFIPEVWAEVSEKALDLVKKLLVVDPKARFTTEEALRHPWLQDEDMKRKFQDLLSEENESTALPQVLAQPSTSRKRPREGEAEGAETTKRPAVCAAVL
Outline: as §1

Hck(h) = target: T4, Hck(h) (Homo sapiens, UniProt P08631)
T4 construct: purchased Millipore
T4 sequence (P08631 whole entry): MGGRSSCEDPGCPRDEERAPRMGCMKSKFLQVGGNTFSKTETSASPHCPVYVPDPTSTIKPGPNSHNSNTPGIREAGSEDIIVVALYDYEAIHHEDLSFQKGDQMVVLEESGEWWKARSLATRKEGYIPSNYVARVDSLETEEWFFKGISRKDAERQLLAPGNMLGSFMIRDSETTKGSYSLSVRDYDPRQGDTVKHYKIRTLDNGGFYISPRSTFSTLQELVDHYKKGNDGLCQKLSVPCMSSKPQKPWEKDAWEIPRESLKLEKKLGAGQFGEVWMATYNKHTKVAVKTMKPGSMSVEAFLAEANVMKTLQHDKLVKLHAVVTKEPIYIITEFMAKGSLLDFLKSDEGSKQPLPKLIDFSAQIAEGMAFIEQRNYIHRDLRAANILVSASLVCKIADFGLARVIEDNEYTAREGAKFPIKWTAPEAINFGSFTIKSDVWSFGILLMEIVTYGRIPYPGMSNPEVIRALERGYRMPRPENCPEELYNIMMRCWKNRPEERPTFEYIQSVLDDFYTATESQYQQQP
Outline: as §1

SAPK4(h) = target: T5, SAPK4(h) (Homo sapiens, UniProt O15264)
T5 construct: purchased Millipore
T5 sequence (O15264 1-365): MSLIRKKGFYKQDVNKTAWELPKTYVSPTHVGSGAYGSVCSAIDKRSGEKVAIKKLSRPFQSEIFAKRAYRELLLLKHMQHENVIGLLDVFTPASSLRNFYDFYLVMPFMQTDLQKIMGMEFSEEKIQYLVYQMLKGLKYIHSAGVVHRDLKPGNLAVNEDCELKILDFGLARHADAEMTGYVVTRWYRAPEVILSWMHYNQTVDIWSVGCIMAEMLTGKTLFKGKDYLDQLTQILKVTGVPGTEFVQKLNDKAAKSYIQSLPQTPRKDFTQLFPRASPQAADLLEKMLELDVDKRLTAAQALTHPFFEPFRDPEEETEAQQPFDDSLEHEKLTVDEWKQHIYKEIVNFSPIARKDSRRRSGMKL
Outline: as §1

SRPK1(h) = target: T6, SRPK1(h) (Homo sapiens, UniProt Q96SB4)
T6 construct: purchased Millipore
T6 sequence (Q96SB4 whole entry): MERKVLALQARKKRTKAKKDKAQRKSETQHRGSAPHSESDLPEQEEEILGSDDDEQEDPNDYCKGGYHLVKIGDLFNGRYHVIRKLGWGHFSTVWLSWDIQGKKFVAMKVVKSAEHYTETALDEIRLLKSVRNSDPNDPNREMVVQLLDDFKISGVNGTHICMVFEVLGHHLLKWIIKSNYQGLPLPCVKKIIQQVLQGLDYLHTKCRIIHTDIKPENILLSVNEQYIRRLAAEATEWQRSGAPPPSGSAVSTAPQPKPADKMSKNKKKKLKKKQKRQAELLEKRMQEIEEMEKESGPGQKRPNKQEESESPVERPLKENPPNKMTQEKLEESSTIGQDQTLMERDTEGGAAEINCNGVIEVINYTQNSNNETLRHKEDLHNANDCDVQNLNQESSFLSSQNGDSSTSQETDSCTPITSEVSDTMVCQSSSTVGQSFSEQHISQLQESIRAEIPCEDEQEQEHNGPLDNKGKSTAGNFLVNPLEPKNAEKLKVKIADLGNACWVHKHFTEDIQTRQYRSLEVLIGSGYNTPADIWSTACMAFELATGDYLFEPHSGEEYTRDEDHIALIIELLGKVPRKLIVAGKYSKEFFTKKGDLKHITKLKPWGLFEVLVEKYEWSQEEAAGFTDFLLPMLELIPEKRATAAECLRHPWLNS
Outline: as §1

Haspin(h) = target: T7, Haspin(h) (Homo sapiens, UniProt Q8TF76)
T7 construct: purchased Millipore
T7 sequence (Q8TF76 1-798): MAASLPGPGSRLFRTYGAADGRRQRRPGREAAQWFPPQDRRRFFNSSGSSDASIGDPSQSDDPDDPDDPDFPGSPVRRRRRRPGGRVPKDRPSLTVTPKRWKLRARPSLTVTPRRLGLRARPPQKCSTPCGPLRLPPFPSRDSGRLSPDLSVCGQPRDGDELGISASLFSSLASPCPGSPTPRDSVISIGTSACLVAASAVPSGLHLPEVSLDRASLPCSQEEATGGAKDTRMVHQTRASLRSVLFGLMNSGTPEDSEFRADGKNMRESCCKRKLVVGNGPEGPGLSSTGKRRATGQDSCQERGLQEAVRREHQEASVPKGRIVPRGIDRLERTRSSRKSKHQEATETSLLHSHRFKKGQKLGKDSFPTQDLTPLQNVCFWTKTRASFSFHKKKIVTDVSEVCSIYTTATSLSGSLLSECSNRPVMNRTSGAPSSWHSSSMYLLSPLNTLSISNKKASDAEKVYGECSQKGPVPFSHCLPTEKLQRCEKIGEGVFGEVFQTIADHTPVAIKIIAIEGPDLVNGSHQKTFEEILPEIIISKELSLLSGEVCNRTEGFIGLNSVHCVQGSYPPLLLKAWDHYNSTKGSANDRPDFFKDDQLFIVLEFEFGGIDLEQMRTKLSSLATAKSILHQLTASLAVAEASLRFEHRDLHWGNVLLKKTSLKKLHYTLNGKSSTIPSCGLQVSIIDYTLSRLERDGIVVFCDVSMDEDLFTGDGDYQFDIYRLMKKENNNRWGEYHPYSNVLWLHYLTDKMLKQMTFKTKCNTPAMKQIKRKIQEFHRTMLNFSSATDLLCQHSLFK
Outline: as §1

Sequence	% activity (EGFR(h)) [%]	% activity (CDK9/cyclin T1(h)) [%]	% activity (Src(1-530)(h)) [%]	% activity (MLK1(h)) [%]	% activity (TAO3(h)) [%]	% activity (CHK2(I157T)(h)) [%]	% activity (Hck(h)) [%]	% activity (SAPK4(h)) [%]	% activity (SRPK1(h)) [%]	% activity (Haspin(h)) [%]
FAKLAARLYRKALARQLGVAA [MMI-0300]	21	91	23	40	77	43	72	96	90	48
HRRIKAWLKKIKALARQLGVAA (Mammal) [MMI-0500]	-1	6	21	43	12	3	78	48	80	25
KAFAKLAARLYRKALARQLGVAA [MMI-0400]	16	235	19	33	67	41	72	91	96	36
YARAAARQARAKALARQLGVAA [MMI-0100]	–	–	–	77	45	97	–	–	69	127
YARAAARQARAKALNRQLGVA (Mammal) [MMI-0200]	83	–	75	84	–	85	–	–	93	71

Reference: patent publication US20150258192A1, “COMPOSITIONS AND METHODS FOR PREVENTING OR TREATING CHRONIC LUNG ALLOGRAFT DYSFUNCTION (CLAD) AND IDIOPATHIC PULMONARY FIBROSIS (IPF)” (priority 2014, published 2015)
